Assay results: US20160024487

Experiments:
[1] = test system: T1, Lys(Dnp)-ATNATX4X3PRIVGG-Lys(Abz), X4 = T, X3 = F
T1 sequence: KATNATTFPRIVGGK

[2] = test system: T2, Lys(Dnp)-ATNATX4X3PRIVGG-Lys(Abz), X4 = H, X3 = S
T2 sequence: KATNATHSPRIVGGK

[3] = test system: T3, Lys(Dnp)-ATNATX4X3PRIVGG-Lys(Abz), X4 = D, X3 = Y
T3 sequence: KATNATDYPRIVGGK

[4] = test system: T4, Lys(Dnp)-ATNATX4X3PRIVGG-Lys(Abz), X4 = F, X3 = D
T4 sequence: KATNATFDPRIVGGK

[5] = test system: T5, Lys(Dnp)-ATNATX4X3PRIVGG-Lys(Abz), X4 = Y, X3 = I
T5 sequence: KATNATYIPRIVGGK

[6] = test system: T6, Lys(Dnp)-ATNATX4X3PRIVGG-Lys(Abz), X4 = T, X3 = G
T6 sequence: KATNATTGPRIVGGK

[7] = test system: T7, Lys(Dnp)-ATNATX4X3PRIVGG-Lys(Abz), X4 = S, X3 = F
T7 sequence: KATNATSFPRIVGGK

[8] = test system: T8, Lys(Dnp)-ATNATX4X3PRIVGG-Lys(Abz), X4 = G, X3 = V
T8 sequence: KATNATGVPRIVGGK

[9] = test system: T9, Lys(Dnp)-ATNATX4X3PRIVGG-Lys(Abz), X4 = E, X3 = T
T9 sequence: KATNATETPRIVGGK

[10] = test system: T10, Lys(Dnp)-ATNATX4X3PRIVGG-Lys(Abz), X4 = T, X3 = S
T10 sequence: KATNATTSPRIVGGK

[11] = test system: T11, Lys(Dnp)-ATNATX4X3PRIVGG-Lys(Abz), X4 = G, X3 = K
T11 sequence: KATNATGKPRIVGGK

[12] = test system: T12, Lys(Dnp)-ATNATX4X3PRIVGG-Lys(Abz), X4 = S, X3 = W
T12 sequence: KATNATSWPRIVGGK

[13] = test system: T13, Lys(Dnp)-ATNATX4X3PRIVGG-Lys(Abz), X4 = G, X3 = Q
T13 sequence: KATNATGQPRIVGGK

[14] = test system: T14, Lys(Dnp)-ATNATX4X3PRIVGG-Lys(Abz), X4 = N, X3 = M
T14 sequence: KATNATNMPRIVGGK

[15] = test system: T15, Lys(Dnp)-ATNATX4X3PRIVGG-Lys(Abz), X4 = P, X3 = E
T15 sequence: KATNATPEPRIVGGK

[16] = test system: T16, Lys(Dnp)-ATNATX4X3PRIVGG-Lys(Abz), X4 = G, X3 = A
T16 sequence: KATNATGAPRIVGGK

[17] = test system: T17, Lys(Dnp)-ATNATX4X3PRIVGG-Lys(Abz), X4 = G, X3 = S
T17 sequence: KATNATGSPRIVGGK

[18] = test system: T18, Lys(Dnp)-ATNATX4X3PRIVGG-Lys(Abz), X4 = N, X3 = S
T18 sequence: KATNATNSPRIVGGK

[19] = test system: T19, Lys(Dnp)-ATNATX4X3PRIVGG-Lys(Abz), X4 = S, X3 = A
T19 sequence: KATNATSAPRIVGGK

[20] = test system: T20, Lys(Dnp)-ATNATX4X3PRIVGG-Lys(Abz), X4 = H, X3 = T
T20 sequence: KATNATHTPRIVGGK

[21] = test system: T21, Lys(Dnp)-ATNATX4X3PRIVGG-Lys(Abz), X4 = Q, X3 = L
T21 sequence: KATNATQLPRIVGGK

[22] = test system: T22, Lys(Dnp)-ATNATX4X3PRIVGG-Lys(Abz), X4 = H, X3 = F
T22 sequence: KATNATHFPRIVGGK

[23] = test system: T23, Lys(Dnp)-ATNATX4X3PRIVGG-Lys(Abz), X4 = N, X3 = T
T23 sequence: KATNATNTPRIVGGK

[24] = test system: T24, Lys(Dnp)-ATNATX4X3PRIVGG-Lys(Abz), X4 = S, X3 = P
T24 sequence: KATNATSPPRIVGGK

[25] = test system: T25, Lys(Dnp)-ATNATX4X3PRIVGG-Lys(Abz), X4 = S, X3 = G
T25 sequence: KATNATSGPRIVGGK

[26] = test system: T26, Lys(Dnp)-ATNATX4X3PRIVGG-Lys(Abz), X4 = H, X3 = G
T26 sequence: KATNATHGPRIVGGK

[27] = test system: T27, Lys(Dnp)-ATNATX4X3PRIVGG-Lys(Abz), X4 = G, X3 = Y
T27 sequence: KATNATGYPRIVGGK

[28] = test system: T28, Lys(Dnp)-ATNATX4X3PRIVGG-Lys(Abz), X4 = S, X3 = H
T28 sequence: KATNATSHPRIVGGK

[29] = test system: T29, Lys(Dnp)-ATNATX4X3PRIVGG-Lys(Abz), X4 = G, X3 = H
T29 sequence: KATNATGHPRIVGGK

[30] = test system: T30, Lys(Dnp)-ATNATX4X3PRIVGG-Lys(Abz), X4 = E, X3 = H
T30 sequence: KATNATEHPRIVGGK

[31] = test system: T31, Lys(Dnp)-ATNATX4X3PRIVGG-Lys(Abz), X4 = S, X3 = M
T31 sequence: KATNATSMPRIVGGK

[32] = test system: T32, Lys(Dnp)-ATNATX4X3PRIVGG-Lys(Abz), X4 = G, X3 = G
T32 sequence: KATNATGGPRIVGGK

[33] = test system: T33, Lys(Dnp)-ATNATX4X3PRIVGG-Lys(Abz), X4 = G, X3 = I
T33 sequence: KATNATGIPRIVGGK

[34] = test system: T34, Lys(Dnp)-ATNATX4X3PRIVGG-Lys(Abz), X4 = G, X3 = R
T34 sequence: KATNATGRPRIVGGK

[35] = test system: T35, Lys(Dnp)-ATNATX4X3PRIVGG-Lys(Abz), X4 = N, X3 = Y
T35 sequence: KATNATNYPRIVGGK

[36] = test system: T36, Lys(Dnp)-ATNATX4X3PRIVGG-Lys(Abz), X4 = T, X3 = I
T36 sequence: KATNATTIPRIVGGK

[37] = test system: T37, Lys(Dnp)-ATNATX4X3PRIVGG-Lys(Abz), X4 = E, X3 = A
T37 sequence: KATNATEAPRIVGGK

[38] = test system: T38, Lys(Dnp)-ATNATX4X3PRIVGG-Lys(Abz), X4 = T, X3 = E
T38 sequence: KATNATTEPRIVGGK

[39] = test system: T39, Lys(Dnp)-ATNATX4X3PRIVGG-Lys(Abz), X4 = N, X3 = K
T39 sequence: KATNATNKPRIVGGK

For Human plasma purified Factor Xa, the FXa kcat/KM [1] was 22 M⁻¹ s⁻¹, the FXa kcat/KM [2] was 60 M⁻¹ s⁻¹ and the FXa kcat/KM [3] was 11 M⁻¹ s⁻¹. It also gave an FXa kcat/KM [4] of 63 M⁻¹ s⁻¹, an FXa kcat/KM [5] of 66 M⁻¹ s⁻¹ and an FXa kcat/KM [6] of 21 M⁻¹ s⁻¹. It also gave an FXa kcat/KM [7] of 17 M⁻¹ s⁻¹, an FXa kcat/KM [8] of 40 M⁻¹ s⁻¹ and an FXa kcat/KM [9] of 7.9 M⁻¹ s⁻¹. For the same substance, the FXa kcat/KM [10] was 16 M⁻¹ s⁻¹, the FXa kcat/KM [11] was 34 M⁻¹ s⁻¹ and the FXa kcat/KM [12] was 43 M⁻¹ s⁻¹. It also gave an FXa kcat/KM [13] of 94 M⁻¹ s⁻¹, an FXa kcat/KM [14] of 27 M⁻¹ s⁻¹ and an FXa kcat/KM [15] of 1000 M⁻¹ s⁻¹. It also gave an FXa kcat/KM [16] of 50 M⁻¹ s⁻¹, an FXa kcat/KM [17] of 49 M⁻¹ s⁻¹ and an FXa kcat/KM [18] of 16 M⁻¹ s⁻¹. For the same substance, the FXa kcat/KM [19] was 19 M⁻¹ s⁻¹, the FXa kcat/KM [20] was 50 M⁻¹ s⁻¹ and the FXa kcat/KM [21] was 480 M⁻¹ s⁻¹. The FXa kcat/KM [22] was 42 M⁻¹ s⁻¹, the FXa kcat/KM [23] was 15 M⁻¹ s⁻¹ and the FXa kcat/KM [24] was 13 M⁻¹ s⁻¹. For the same substance, the FXa kcat/KM [25] was 24 M⁻¹ s⁻¹, the FXa kcat/KM [26] was 47 M⁻¹ s⁻¹ and the FXa kcat/KM [27] was 34 M⁻¹ s⁻¹. It also gave an FXa kcat/KM [28] of 24 M⁻¹ s⁻¹, an FXa kcat/KM [29] of 58 M⁻¹ s⁻¹ and an FXa kcat/KM [30] of 7.7 M⁻¹ s⁻¹. It also gave an FXa kcat/KM [31] of 46 M⁻¹ s⁻¹, an FXa kcat/KM [32] of 16 M⁻¹ s⁻¹ and an FXa kcat/KM [33] of 88 M⁻¹ s⁻¹. The FXa kcat/KM [34] was 130 M⁻¹ s⁻¹, the FXa kcat/KM [35] was 15 M⁻¹ s⁻¹ and the FXa kcat/KM [36] was 63 M⁻¹ s⁻¹. The FXa kcat/KM [37] was 4.3 M⁻¹ s⁻¹, the FXa kcat/KM [38] was 15 M⁻¹ s⁻¹ and the FXa kcat/KM [39] was 14 M⁻¹ s⁻¹.
